This note sets out measurements from patent US20060008891A1, “Cathepsin G-related peptides as modulators of formylpeptide receptors (FPR)” (The Government of USA as repersented by the Secretary, …, priority 2004, published 2006).

Values joined by “and” are separate entries in the source; they are usually repeats but may differ in a detail not shown here. Equal entries are not always repeated.

For one experiment, the target named is T1, FPR (Homo sapiens, UniProt P21462).
T1 construct: expressed in transfected cells; host or cells: Rat basophilic leukemia (RBL) cells, stably transfected (ETFR cells); gift of H. Ali and R. Snyderman, Duke University
T1 sequence (P21462 1-350): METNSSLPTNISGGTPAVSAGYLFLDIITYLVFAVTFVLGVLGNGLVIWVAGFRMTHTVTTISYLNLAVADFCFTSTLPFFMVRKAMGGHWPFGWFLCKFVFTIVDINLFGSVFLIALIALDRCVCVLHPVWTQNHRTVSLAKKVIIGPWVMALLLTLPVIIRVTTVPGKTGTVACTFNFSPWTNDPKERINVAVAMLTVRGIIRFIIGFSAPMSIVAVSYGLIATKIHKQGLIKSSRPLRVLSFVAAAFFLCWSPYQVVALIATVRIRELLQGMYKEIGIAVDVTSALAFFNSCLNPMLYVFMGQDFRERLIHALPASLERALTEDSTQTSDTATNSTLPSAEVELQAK
The experiment in a line: Chemotaxis assay, RBL cells transfected with FPR (ETFR cells). The class given is cell-based. The procedure:
Human PBMC were isolated from leukopacks obtained through the courtesy of Transfusion Medicine Department, National Institutes of Health Clinical Center (Bethesda, Md.) by Ficoll-Hypaque density gradient centrifugation. Monocytes were purified from human PBMC by Percoll gradient to yield>90% pure preparations. […] H. Ali and R. Snyderman, Duke University (Durham, N.C.) and maintained in the presence of 0.8 mg/ml geneticin (G418, Life Technologies, Rockville, Md.) in DMEM supplemented with 10% FCS. B. Chemotaxis assay Migration of phagocytes and ETFR cells was assessed using a 48-well microchemotaxis chamber (Neuroprobe, Cabin John, Md.) as previously described (Hu et al. (2001) J Leukoc Biol 70 15512). Briefly, different concentrations of stimulants were placed in the wells of the lower compartment of the chamber, and 50 μl cells (1.5×10^6 cells/ml for monocyte and neutrophil, 1×10^6 ETFR cells/ml) were added to the wells of the upper compartment. The lower and upper compartments were separated by either a 5-μm (for monocyte) or a 10-μm pore size, collagen-coated (for ETFR cells) polycarbonate filter (Osmonics, Livermore, Calif.). After incubation at 37° C. in humidified air with 5% CO2 (60 min for neutrophils, 90 min for monocytes, 4.5 h for ETFR cells), the filter was removed and stained, and the cells migrating across the filter were counted with light microscopy. The results are presented as the mean number of cells (±SD) in three high power fields (HPFs). For analysis of cross-desensitization, cells were pretreated with indicated reagents for 1 h at 37° C. After thorough washing with cold medium (RPMI 1640, 1% BSA), the cells were resuspended and assayed. To measure the effect of various signaling inhibitors, unless otherwise indicated, the cells were pre-incubated at 37° C. for 60 min with the inhibitors, and were then added to the upper wells of the chemotaxis chamber.

For another experiment, the system named is p38 MAPK. The experiment in a line: Phosphorylation of p38 MAPK in ETFR cells (Western blot). The class given is cell-based, rat. The protocol:
ETFR cells were plated in Petri dishes and cultured in DMEM at 37° C. in humidified 5% CO2 atmosphere for 48 h. After further culture in serum-free DMEM overnight, the cells were treated with stimulants for indicated time periods. The reaction was stopped by adding 1 ml ice-cold PBS, and the cells were lysed in 1×SDS lysis buffer (62.5 mM Tris-HCl, 2% w/v SDS, 10% glycerol, 50 mM DTT, pH 6.8) and harvested into tubes for sonication. Proteins (50 μg for each sample) were resolved by SDS-PAGE and transferred onto nitrocellulose membranes (Bio-Rad, Hercules, Calif.). The membranes were blocked for 2 h at room temperature in 3% non-fat milk prepared in Tris-buffered saline-T (10 mM Tris-HCl, pH 7.5, 150 mM NaCl, 0.1% Tween 20) and probed with anti-p-ERK1/2, p-p38 MAPK, or p-Akt (1:1000) at room temperature for 1-2 h or at 4° C. overnight. The membranes were then washed and incubated with horseradish peroxidase-conjugated secondary antibodies diluted in Tris-buffered saline-T for 1 h at room temperature. The immune complexes on the membranes were visualized using ECL reagents. Total ERK1/2, p38 MAPK, and Akt were visualized by stripping the same membrane and probing with antibodies against total ERK1/2, p38 MAPK, and Akt.

For another experiment, the system named is CHI-39. The experiment in a line: Chemotaxis of HEK293 cells transfected with chimeric receptor CHI-39. The class given is cell-based, human. To be noted: N-terminus of FPR replaced by FPRL1 sequences. The protocol:
Human PBMC were isolated from leukopacks obtained through the courtesy of Transfusion Medicine Department, National Institutes of Health Clinical Center (Bethesda, Md.) by Ficoll-Hypaque density gradient centrifugation. Monocytes were purified from human PBMC by Percoll gradient to yield>90% pure preparations. […] H. Ali and R. Snyderman, Duke University (Durham, N.C.) and maintained in the presence of 0.8 mg/ml geneticin (G418, Life Technologies, Rockville, Md.) in DMEM supplemented with 10% FCS. B. Chemotaxis assay Migration of phagocytes and ETFR cells was assessed using a 48-well microchemotaxis chamber (Neuroprobe, Cabin John, Md.) as previously described (Hu et al. (2001) J Leukoc Biol 70 15512). […] After incubation at 37° C. in humidified air with 5% CO2 (60 min for neutrophils, 90 min for monocytes, 4.5 h for ETFR cells), the filter was removed and stained, and the cells migrating across the filter were counted with light microscopy. […]
The chimeric receptor was stably transfected into HEK293 cells (a human embryo kidney cell line) and the chemotactic activity of CaG on the transfected cells was measured and compared to the chemotactic activity of CaG on […] cells transfected with wild type FPR, using the assay for chemotaxis described in Example IB. […]

Consider “CaG: Cathepsin G, serine protease purified from neutrophil granules, purchased from Athens Research & Technology”, for which, in the experiment with FPR (ETFR cells), the “chemotactic response of ETFR cells” value was “marked and dose-dependent chemotactic response”; the “concentration range potently chemotactic” value was 4 to 400 nM; the “optimal concentration to induce ETFR cell migration” value was 5 µg/mL. Also, in the experiment with FPR (FPR-expressing cells, cell type not specified), the “concentration required to elicit optimal cell migration” value is 5-10 μg/ml and 200-400 nM. Moreover, the “time to activation of p38 MAPK” value with p38 MAPK was in the range of 1 to 5 min. Moreover, in the experiment with CHI-39, the “chemotactic activity on CHI-39-transfected HEK293 cells” value is “exhibit robust migration in response to CaG”.
